How the values were obtained:
AncSZ = test: phosphorylation enrichment, bacterial display (enrichment ratio); higher = better substrate or ligand; peptides without Tyr show the background
EPHB1 = EPHB1 (UniProt P54762); test: as above
EPHB2 = EPHB2 (UniProt P29323); test: as above
FGFR1 = FGFR1 (UniProt P11362); test: as above
FGFR3 = FGFR3 (UniProt P22607); test: as above
Fer (mouse) = test: as above
Fes = Fes (UniProt P07332); test: as above
Fyn = Fyn (UniProt P06241); test: as above
Hck = Hck (UniProt P08631); test: as above
Jak2 = Jak2 (UniProt O60674); test: as above
Chain of Jak2 (O60674 whole entry, looked up): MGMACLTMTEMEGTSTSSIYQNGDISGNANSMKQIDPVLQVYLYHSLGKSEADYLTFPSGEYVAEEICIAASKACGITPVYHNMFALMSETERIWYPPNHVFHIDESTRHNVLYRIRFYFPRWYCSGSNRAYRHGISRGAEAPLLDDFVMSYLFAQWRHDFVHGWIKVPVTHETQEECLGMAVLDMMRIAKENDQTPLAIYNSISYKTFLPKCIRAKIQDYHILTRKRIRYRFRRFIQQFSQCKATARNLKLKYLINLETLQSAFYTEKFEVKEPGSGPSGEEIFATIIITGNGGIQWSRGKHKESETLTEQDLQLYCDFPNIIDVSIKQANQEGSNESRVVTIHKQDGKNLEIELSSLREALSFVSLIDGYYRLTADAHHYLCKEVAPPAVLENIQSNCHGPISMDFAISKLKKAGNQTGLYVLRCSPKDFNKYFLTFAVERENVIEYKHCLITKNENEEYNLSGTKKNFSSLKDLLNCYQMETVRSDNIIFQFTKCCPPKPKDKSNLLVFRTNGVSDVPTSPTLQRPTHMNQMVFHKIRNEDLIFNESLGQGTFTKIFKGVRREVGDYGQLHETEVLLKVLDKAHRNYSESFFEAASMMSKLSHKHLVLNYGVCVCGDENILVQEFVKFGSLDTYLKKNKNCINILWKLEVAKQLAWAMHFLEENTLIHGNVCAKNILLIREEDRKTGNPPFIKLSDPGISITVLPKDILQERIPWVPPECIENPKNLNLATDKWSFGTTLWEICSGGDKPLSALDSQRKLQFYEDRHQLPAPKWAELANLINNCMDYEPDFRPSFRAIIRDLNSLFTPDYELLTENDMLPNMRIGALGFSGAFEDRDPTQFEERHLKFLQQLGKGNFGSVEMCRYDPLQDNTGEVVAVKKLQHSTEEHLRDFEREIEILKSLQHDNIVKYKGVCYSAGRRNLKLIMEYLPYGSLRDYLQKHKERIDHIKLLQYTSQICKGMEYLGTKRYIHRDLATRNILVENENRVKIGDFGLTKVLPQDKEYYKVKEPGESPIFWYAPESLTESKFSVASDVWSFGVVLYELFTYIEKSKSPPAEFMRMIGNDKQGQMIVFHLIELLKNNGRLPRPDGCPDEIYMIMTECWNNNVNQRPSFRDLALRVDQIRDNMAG

MERTK = MERTK (UniProt Q12866); test: as above
Chain of MERTK (Q12866 whole entry, looked up): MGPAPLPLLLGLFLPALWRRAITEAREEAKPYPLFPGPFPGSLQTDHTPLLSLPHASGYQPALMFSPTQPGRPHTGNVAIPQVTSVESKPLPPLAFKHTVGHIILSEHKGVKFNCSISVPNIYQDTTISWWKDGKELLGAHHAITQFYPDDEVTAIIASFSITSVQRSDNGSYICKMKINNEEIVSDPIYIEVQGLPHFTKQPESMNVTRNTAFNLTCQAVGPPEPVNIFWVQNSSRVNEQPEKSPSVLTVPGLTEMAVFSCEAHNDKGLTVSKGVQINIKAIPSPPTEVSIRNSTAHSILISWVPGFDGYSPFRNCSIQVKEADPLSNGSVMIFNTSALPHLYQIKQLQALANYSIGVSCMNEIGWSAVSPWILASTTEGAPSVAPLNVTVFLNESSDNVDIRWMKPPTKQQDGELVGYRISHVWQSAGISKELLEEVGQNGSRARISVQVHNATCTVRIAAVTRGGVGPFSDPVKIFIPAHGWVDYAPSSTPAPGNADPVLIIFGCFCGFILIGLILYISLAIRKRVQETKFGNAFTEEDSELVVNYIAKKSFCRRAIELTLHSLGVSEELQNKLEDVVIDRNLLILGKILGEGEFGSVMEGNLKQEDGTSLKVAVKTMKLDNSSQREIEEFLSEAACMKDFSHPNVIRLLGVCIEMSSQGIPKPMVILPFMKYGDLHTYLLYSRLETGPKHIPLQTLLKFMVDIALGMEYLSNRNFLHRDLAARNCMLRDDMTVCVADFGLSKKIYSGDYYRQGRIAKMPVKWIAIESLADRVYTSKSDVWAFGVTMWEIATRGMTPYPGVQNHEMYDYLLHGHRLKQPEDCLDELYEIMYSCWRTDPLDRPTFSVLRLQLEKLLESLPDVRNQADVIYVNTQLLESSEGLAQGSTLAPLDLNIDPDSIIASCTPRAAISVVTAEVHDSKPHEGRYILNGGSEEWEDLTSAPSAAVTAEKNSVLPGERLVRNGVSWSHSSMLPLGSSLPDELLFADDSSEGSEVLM

c-Abl (mouse) = test: as above
c-Src = test: as above
Grb2 SH2 = Grb2 SH2 (UniProt P62993); test: SH2 binding enrichment of the phosphorylated peptide, bacterial display (enrichment ratio); higher = better substrate or ligand; peptides without Tyr show the background
SHP2-C SH2 = test: as above
c-Src SH2 = test: as above
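Throughout, for SH2 binding enrichment of the phosphorylated peptide, bacterial display: peptide library displayed on the E. coli surface as eCPX fusions, selected cells deep-sequenced, score is each peptide's frequency after selection divided by its frequency in the input.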
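Throughout, for phosphorylation enrichment, bacterial display: 11-residue human phosphosite peptides and single-mutation variants displayed on the E. coli surface, counted by deep sequencing, each peptide's frequency after selection divided by its frequency in the unselected input library; frequency after pTyr selection over input frequency; kinase dosed for 20-30% of maximal phosphorylation in three min.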

Chain of EPHB2 (P29323 whole entry, looked up): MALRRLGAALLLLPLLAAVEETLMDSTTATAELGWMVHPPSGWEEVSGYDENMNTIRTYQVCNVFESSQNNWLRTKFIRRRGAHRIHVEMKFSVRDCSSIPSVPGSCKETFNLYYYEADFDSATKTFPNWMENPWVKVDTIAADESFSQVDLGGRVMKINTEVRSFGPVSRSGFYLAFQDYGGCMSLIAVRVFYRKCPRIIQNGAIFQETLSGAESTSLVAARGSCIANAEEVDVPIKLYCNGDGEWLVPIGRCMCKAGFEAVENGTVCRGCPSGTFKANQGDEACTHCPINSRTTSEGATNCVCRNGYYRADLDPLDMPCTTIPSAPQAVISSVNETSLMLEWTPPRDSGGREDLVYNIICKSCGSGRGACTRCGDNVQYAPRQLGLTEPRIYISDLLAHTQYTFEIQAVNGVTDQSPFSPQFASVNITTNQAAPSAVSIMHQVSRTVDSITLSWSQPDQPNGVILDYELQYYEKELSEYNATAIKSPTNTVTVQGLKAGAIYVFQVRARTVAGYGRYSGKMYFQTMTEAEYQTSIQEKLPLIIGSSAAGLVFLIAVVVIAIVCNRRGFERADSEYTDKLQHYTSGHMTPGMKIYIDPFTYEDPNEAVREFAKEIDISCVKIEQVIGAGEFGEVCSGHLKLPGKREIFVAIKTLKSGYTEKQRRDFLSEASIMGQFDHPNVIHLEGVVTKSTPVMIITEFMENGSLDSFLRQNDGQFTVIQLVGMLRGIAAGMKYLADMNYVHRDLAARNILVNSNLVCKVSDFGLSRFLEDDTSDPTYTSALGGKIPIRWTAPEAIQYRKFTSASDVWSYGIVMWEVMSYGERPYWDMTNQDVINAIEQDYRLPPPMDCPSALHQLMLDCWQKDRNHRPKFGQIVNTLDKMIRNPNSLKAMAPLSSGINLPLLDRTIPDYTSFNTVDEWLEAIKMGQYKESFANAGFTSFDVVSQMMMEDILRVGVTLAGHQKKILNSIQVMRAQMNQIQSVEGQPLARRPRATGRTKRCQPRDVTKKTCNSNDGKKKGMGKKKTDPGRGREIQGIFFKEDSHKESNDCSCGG
Chain of Fes (P07332 whole entry, looked up): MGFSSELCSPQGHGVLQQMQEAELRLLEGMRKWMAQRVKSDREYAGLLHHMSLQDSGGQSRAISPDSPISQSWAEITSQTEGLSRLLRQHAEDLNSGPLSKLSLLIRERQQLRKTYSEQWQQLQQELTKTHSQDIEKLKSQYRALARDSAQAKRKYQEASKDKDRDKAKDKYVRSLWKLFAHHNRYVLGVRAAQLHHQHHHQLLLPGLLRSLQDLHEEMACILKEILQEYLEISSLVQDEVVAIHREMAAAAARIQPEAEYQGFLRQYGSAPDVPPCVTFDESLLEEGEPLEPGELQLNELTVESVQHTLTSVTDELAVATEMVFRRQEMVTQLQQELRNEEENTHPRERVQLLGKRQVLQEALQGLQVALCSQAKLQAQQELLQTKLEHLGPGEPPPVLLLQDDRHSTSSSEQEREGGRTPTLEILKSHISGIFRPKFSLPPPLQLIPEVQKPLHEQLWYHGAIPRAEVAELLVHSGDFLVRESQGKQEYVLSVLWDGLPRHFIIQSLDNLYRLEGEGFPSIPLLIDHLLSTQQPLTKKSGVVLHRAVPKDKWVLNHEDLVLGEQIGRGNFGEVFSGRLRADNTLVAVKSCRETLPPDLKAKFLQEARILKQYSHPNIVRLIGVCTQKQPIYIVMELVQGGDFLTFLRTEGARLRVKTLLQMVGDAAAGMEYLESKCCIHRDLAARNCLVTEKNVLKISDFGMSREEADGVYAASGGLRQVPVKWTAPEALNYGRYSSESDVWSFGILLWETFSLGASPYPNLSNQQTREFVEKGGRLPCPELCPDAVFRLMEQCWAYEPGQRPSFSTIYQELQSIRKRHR
Chain of EPHB1 (P54762 whole entry, looked up): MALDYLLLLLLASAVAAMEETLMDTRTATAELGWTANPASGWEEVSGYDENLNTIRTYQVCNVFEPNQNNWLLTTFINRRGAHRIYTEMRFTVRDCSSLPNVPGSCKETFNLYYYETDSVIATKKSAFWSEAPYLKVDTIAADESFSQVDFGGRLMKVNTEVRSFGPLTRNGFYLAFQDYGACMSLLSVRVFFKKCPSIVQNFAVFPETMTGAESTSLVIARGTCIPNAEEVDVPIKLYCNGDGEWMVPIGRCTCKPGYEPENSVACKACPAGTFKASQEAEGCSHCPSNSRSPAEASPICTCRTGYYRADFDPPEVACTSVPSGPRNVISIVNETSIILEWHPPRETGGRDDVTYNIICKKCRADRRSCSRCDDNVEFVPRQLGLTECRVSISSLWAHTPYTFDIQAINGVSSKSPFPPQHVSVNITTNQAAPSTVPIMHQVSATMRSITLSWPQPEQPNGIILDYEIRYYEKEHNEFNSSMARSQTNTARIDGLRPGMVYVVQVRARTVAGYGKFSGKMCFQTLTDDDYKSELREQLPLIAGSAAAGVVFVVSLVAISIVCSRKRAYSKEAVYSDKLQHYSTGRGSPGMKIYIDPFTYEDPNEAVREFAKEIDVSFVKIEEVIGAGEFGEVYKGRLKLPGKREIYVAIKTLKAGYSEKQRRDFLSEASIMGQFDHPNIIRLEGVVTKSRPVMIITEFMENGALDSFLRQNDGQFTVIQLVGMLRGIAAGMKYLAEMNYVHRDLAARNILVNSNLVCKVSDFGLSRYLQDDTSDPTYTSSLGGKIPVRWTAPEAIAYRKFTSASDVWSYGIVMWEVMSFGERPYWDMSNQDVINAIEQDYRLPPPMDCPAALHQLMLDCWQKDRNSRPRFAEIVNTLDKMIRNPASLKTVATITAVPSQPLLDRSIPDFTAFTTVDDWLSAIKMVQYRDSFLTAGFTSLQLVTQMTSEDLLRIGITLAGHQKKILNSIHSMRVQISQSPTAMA

Sequence | SH2 binding enrichment (Grb2 SH2) | SH2 binding enrichment (SHP2-C SH2) | SH2 binding enrichment (c-Src SH2) | phosphorylation enrichment (AncSZ) | phosphorylation enrichment (EPHB1) | phosphorylation enrichment (EPHB2) | phosphorylation enrichment (FGFR1) | phosphorylation enrichment (FGFR3) | phosphorylation enrichment (Fer (mouse)) | phosphorylation enrichment (Fes) | phosphorylation enrichment (Fyn) | phosphorylation enrichment (Hck) | phosphorylation enrichment (Jak2) | phosphorylation enrichment (MERTK) | phosphorylation enrichment (c-Abl (mouse)) | phosphorylation enrichment (c-Src)
STGSRYQPLAS [NCAPD2_Y1325] | 0.826 | 0.651 | 0.486 | 0.474 | 0.424 | 0.435 | 0.42 | 0.494 | 0.423 | 0.609 | 0.433 | 0.414 | 0.596 | 0.549 | 0.505 | 0.423
FQLENCCNGGG [INS_Y108_Y108C_YF] | 0.772 | 0.444 | 0.537 | 0.896 | 0.509 | 0.586 | 0.442 | 0.523 | 0.564 | 0.944 | 0.445 | 0.504 | 0.85 | 0.516 | 0.546 | 0.467
CTTIHYTFMCN [TP53_Y234_N235T_YF] | 1.83 | 3.21 | 1.85 | 0.939 | 0.562 | 0.553 | 0.718 | 0.754 | 0.575 | 1.14 | 0.535 | 0.576 | 0.976 | 0.536 | 0.819 | 0.653
PYIDSYEKDVA [PGM1_Y521_L516P] | 0.802 | 0.724 | 0.647 | 1.66 | 0.907 | 0.857 | 0.907 | 1.08 | 0.852 | 1.48 | 0.684 | 0.725 | 1.61 | 0.763 | 0.961 | 0.703
MNLLGYRQVRS [CHST4_Y359_H361Q] | 0.686 | 0.481 | 0.515 | 0.693 | 0.439 | 0.448 | 0.399 | 0.614 | 0.359 | 0.72 | 0.468 | 0.45 | 0.566 | 0.438 | 0.679 | 0.411
KKRRSYGNSSD [SELENOK_Y52] | 0.601 | 0.525 | 0.376 | 0.554 | 0.472 | 0.394 | 0.383 | 0.395 | 0.417 | 0.582 | 0.448 | 0.511 | 0.475 | 0.51 | 0.479 | 0.525
DFSLKYATDIP [APC_Y1183_YF] | 0.781 | 0.737 | 0.457 | 0.914 | 0.606 | 0.619 | 0.592 | 0.668 | 0.536 | 1.08 | 0.524 | 0.47 | 0.897 | 0.374 | 0.572 | 0.378
GASWRYGSGVS [NEU1_Y242] | 0.728 | 0.721 | 0.461 | 0.637 | 0.512 | 0.432 | 0.531 | 0.617 | 0.428 | 0.782 | 0.479 | 0.505 | 0.566 | 0.413 | 0.506 | 0.42
LRFKQYLRNPP [SHC1_Y315] | 0.786 | 0.591 | 0.477 | 0.957 | 0.562 | 1.8 | 0.865 | 0.767 | 0.623 | 1.11 | 0.551 | 1.04 | 1.17 | 0.564 | 0.847 | 0.642

Further lines, with some results ahead:

SH2 binding enrichment (Grb2 SH2) | SH2 binding enrichment (SHP2-C SH2) | SH2 binding enrichment (c-Src SH2) | Sequence | phosphorylation enrichment (AncSZ) | phosphorylation enrichment (EPHB1) | phosphorylation enrichment (EPHB2) | phosphorylation enrichment (FGFR1) | phosphorylation enrichment (FGFR3) | phosphorylation enrichment (Fer (mouse)) | phosphorylation enrichment (Fes) | phosphorylation enrichment (Fyn) | phosphorylation enrichment (Hck) | phosphorylation enrichment (Jak2) | phosphorylation enrichment (MERTK) | phosphorylation enrichment (c-Abl (mouse)) | phosphorylation enrichment (c-Src)
1.08 | 0.529 | 0.448 | RVNSAYQEKVS [ACAN_Y100_D102E] | 0.407 | 0.413 | 0.397 | 0.678 | 0.423 | 0.313 | 0.667 | 0.378 | 0.49 | 0.538 | 0.5 | 0.489 | 0.291
0.763 | 0.409 | 0.453 | MSLRSYGSREG [APC_Y96] | 0.723 | 0.416 | 0.42 | 0.373 | 0.414 | 0.413 | 0.586 | 0.398 | 0.387 | 0.451 | 0.418 | 0.491 | 0.458
1.48 | 0.362 | 0.373 | PSNTEYPGPHS [TP63_Y171_D170E] | 0.806 | 0.774 | 0.671 | 0.56 | 0.497 | 0.498 | 0.832 | 0.507 | 0.477 | 0.568 | 0.383 | 0.696 | 0.41
1.81 | 1.43 | 1.56 | KRFRIYHLAIS [BRCA2_Y3009_T3013I_YF] | 0.899 | 0.612 | 0.524 | 0.644 | 0.625 | 0.48 | 0.942 | 0.55 | 0.494 | 0.86 | 0.484 | 1.38 | 0.448
0.864 | 0.742 | 1.29 | GGMAEYTRLHN [EHHADH_Y4] | 0.609 | 0.494 | 0.374 | 0.382 | 0.442 | 0.359 | 0.597 | 0.32 | 0.451 | 0.691 | 0.378 | 0.532 | 0.421
0.82 | 1 | 0.505 | KLFIEYPTGSG [IRF2BPL_Y423] | 0.636 | 0.478 | 0.565 | 0.412 | 0.486 | 0.301 | 0.775 | 0.444 | 0.431 | 0.653 | 0.374 | 0.521 | 0.402
